The values that follow come from article PMC4610036 (Journal of molecular catalysis. B, Enzymatic, 2015).

This data set deals with the molecule itself. The data set is described as follows: crystal structure.

B1: β-ketoacyl thiolase B of Ralstonia eutropha (enzyme, UniProt Q0KBP1 1-394, looked up)
chain: MTREVVVVSGVRTAIGTFGGSLKDVAPAELGALVVREALARAQVSGDDVGHVVFGNVIQTEPRDMYLGRVAAVNGGVTINAPALTVNRLCGSGLQAIVSAAQTILLGDTDVAIGGGAESMSRAPYLAPAARWGARMGDAGLVDMMLGALHDPFHRIHMGVTAENVAKEYDISRAQQDEAALESHRRASAAIKAGYFKDQIVPVVSKGRKGDVTFDTDEHVRHDATIDDMTKLRPVFVKENGTVTAGNASGLNDAAAAVVMMERAEAERRGLKPLARLVSYGHAGVDPKAMGIGPVPATKIALERAGLQVSDLDVIEANEAFAAQACAVTKALGLDPAKVNPNGSGISLGHPIGATGALITVKALHELNRVQGRYALVTMCIGGGQGIAAIFERI
By stoichiometry N is commonly meant a count of units in the complex or per binding partner. With B1, the “stoichiometry N” value was determined as 4.
